Measurements reported in IntAct's records for PubMed 18046461.

B1: Mitogen-activated protein kinase 8 (Rattus norvegicus (Rat)), P49185 (parent)
chain: MSRSKRDNNFYSVEIADSTFTVLKRYQNLKPIGSGAQGIVCAAYDAILERNVAIKKLSRPFQNQTHAKRAYRELVLMKCVNHKNIIGLLNVFTPQKSLEEFQDVYIVMELMDANLCQVIQMELDHERMSYLLYQMLCGIKHLHSAGIIHRDLKPSNIVVKSDCTLKILDFGLARTAGTSFMMTPYVVTRYYRAPEVILGMGYKENVDLWSVGCIMGEMVCLKILFPGRDYIDQWNKVIEQLGTPCPEFMKKLQPTVRTYVENRPKYAGYSFEKLFPDVLFPADSEHNKLKASQARDLLSKMLVIDASKRISVDEALQHPYINVWYDPSEAEAPPPKIPDKQLDEREHTIEEWKELIYKEVMDLEERTKNGVIRGQPSPLGAAVINGSQHPVSSPSVNDMSSMSTDPTLASD
B2: Mitogen-activated protein kinase 8 (Rattus norvegicus (Rat)), P49185 (parent)
chain: B1 chain
partner: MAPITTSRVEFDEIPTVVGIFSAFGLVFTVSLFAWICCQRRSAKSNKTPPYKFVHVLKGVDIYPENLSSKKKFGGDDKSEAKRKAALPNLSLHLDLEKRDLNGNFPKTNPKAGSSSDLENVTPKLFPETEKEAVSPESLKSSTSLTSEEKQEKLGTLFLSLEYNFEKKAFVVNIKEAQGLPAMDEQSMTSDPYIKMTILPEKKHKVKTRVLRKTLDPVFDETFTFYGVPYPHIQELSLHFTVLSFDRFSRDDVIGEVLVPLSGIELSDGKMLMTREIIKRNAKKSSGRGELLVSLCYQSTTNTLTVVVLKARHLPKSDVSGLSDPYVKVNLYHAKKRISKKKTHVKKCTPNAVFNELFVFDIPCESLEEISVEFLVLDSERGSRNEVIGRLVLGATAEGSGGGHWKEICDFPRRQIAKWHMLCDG

What was measured:
[1] = variants of: B1; details: with jun_rat Jun
[2] = variants of: B1; details: with jun_rat Jun; remark: listed apart in the source
[3] = variants of: B2; details: with syt4_rat Syt4, P50232
[4] = variants of: B2; details: with syt4_rat Syt4, P50232; remark: listed apart in the source
[5] = variants of: B2; details: with syt4_rat Syt4, P50232; remark: listed apart in the source

Row | Variant | effect of a mutation on the interaction [1] | effect of a mutation on the interaction [2] | effect of a mutation on the interaction [3] | effect of a mutation on the interaction [4] | effect of a mutation on the interaction [5]
1 | D326N | disrupting interaction | decreasing interaction |  |  | 
2 | D162T | disrupting interaction |  |  |  | 
3 | D162T |  |  | disrupting interaction |  | decreasing interaction
4 | D326N |  |  | disrupting interaction | decreasing interaction | 

The next lines start with the values.

Row | effect of a mutation on the interaction [1] | effect of a mutation on the interaction [2] | effect of a mutation on the interaction [3] | effect of a mutation on the interaction [4] | effect of a mutation on the interaction [5] | Variant
5 | disrupting interaction | decreasing interaction |  |  |  | E329N
6 | disrupting interaction | decreasing interaction |  |  |  | E331N
7 |  |  | disrupting interaction | decreasing interaction |  | E331N
8 |  |  | disrupting interaction | decreasing interaction |  | E329N
